Data taken from publication PMC3875388.

Molecular target: AhR;ARNT (mouse (C57BL/6);mouse (C57BL/6), UniProt P30561;P53762 1-848;1-791, |)
Assay: EMSA

Sequence of AhR;ARNT (P30561 whole entry, chain 1 of 2): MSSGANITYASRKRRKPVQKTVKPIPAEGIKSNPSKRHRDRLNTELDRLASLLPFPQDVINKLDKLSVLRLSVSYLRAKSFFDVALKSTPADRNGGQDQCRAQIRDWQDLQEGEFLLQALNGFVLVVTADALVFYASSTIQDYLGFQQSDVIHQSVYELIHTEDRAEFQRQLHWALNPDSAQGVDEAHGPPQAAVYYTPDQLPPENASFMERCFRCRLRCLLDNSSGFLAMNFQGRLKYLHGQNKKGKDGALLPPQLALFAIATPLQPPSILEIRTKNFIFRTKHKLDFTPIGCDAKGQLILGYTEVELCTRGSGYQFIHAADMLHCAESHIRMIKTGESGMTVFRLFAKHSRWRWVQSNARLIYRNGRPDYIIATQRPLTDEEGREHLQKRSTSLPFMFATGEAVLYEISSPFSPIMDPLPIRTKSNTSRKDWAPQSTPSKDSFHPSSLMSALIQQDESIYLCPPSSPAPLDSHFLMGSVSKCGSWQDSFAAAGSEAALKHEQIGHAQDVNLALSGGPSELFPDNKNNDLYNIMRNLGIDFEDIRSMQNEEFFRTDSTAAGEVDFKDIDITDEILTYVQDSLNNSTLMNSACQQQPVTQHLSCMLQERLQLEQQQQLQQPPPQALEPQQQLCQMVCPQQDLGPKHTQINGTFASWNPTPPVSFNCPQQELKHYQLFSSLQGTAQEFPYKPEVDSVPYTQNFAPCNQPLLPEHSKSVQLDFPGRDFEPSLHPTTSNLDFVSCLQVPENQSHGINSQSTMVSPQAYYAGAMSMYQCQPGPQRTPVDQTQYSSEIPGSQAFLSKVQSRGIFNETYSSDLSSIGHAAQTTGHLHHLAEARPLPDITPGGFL
Sequence of AhR;ARNT (P53762 whole entry, chain 2 of 2): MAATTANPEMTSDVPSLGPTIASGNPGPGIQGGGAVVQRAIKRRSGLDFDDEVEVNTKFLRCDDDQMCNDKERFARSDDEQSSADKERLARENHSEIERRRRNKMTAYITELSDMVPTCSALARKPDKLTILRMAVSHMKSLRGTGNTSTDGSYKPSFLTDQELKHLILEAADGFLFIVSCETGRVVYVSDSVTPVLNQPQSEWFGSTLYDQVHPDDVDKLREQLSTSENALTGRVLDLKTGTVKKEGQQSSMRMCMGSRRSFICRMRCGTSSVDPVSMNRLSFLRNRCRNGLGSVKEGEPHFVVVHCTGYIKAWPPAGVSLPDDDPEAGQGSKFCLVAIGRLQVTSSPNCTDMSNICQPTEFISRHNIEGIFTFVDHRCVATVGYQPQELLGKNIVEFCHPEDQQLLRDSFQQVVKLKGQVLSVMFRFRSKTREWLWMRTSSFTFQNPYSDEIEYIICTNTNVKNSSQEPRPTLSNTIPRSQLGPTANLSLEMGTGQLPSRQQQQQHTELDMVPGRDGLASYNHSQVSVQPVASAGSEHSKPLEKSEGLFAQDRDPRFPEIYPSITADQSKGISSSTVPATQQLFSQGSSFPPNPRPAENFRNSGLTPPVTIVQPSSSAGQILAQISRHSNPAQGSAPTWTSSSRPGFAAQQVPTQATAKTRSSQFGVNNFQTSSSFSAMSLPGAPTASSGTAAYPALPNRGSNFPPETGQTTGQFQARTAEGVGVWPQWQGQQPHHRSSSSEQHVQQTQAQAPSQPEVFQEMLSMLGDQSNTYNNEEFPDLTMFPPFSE

B1: Bax DRE-like (dsDNA)
DNA 1: GATCCAGAAAGCCGGGCGTGGTGGCGCACGCCTTTAATCCCA
DNA 2: GATCTGGGATTAAAGGCGTGCGCCACCACGCCCGGCTTTCTG
  binding result: no binding
